This passage reports EC50 results from patent publication US20220073643A1 (NANJING GENSCRIPT BIOTECH, published 2022).

Numbering of substitutions follows the chain as printed.

To fix the notation:
B1: 280F3B6 (antibody, V domains shown)
VH: QAYLQQSGAELVRSGASVKMSCKASGYTFTSHNMHWVKQTPGQGLEWIGYIYPGNGGTNYNQKFKGKATLTADTSSSTAYMQISSLTSEDSAVYFCTRDYYGNSFAYWGQGTLVTVSA
VL: DIVMTQSPSSLTEKAGERVSMSCKSSQSLFNSGNQKNYLTWYQQKPGQPPKLLIYWASTRESGVPDRFTGSGSGTDFTLTISSVQAEDLAVYYCQNDYWYPFTFGAGTKLELK
notes: mouse hybridoma mAb
B2: 219F9B8 (antibody, V domains shown)
VH: QAYLQQSGAELVRSGASVRMSCKASGYTFTSYNMHWVKQTPGQGLEWIGYIYPGNGHTNYNQKFKGKATLTADTSSSTAYMQISSLTSEDSAVYFCATGRGFAYWGQGTLVTVSA
VL: B1 VL with E13V, K14T, R18K, S20T, F30L, W56R, W99S, F102L, A106V
notes: mouse hybridoma mAb
B3: 194D3B2 (antibody, V domains shown)
VH: B2 VH with R19K, T28P, I48V, H57G, K65R, G66D, S85R, E89D, A97L
VL: B1 VL with T12I, E13V, K14T, A15P, S20T, F30L, W56R, W99S, F102L, A106I
notes: mouse hybridoma mAb
B4: 277F1F8 (antibody, V domains shown)
VH: B1 VH with A9P, Y52N, T58N, T97A, Y107F
VL: B1 VL with K14T, R18K, F30L, W99R, Y100F
notes: mouse hybridoma mAb
B5: 232D7C8 (antibody, V domains shown)
VH: B1 VH with T97A, Y101F
VL: B1 VL with V3L, E13A, K14T, R18K, K36R, K45R, W99R
notes: mouse hybridoma mAb
B6: 240D6F5 (antibody, V domains shown)
VH: B1 VH with T74P, S84N
VL: B1 VL with W99R
notes: mouse hybridoma mAb
B7: 235A10C9 (antibody, V domains shown)
VH: B1 VH with T30A, G56S, N59K, K65T, S84T, T97A
VL: B1 VL with R18K, S22R, F30L, E87D, W99M, Y100F
notes: mouse hybridoma mAb
B8: 243F6D2 (antibody, V domains shown)
VH: B1 VH with K23R, N59Y, T97A, A106V
VL: B1 VL with I2V, A15T, R18K, F30L, V84L, A86T, D97N, W99R
notes: mouse hybridoma mAb
B9: 244A1B8 (antibody, V domains shown)
VH: B1 VH with M34I, G57A, T58P, K65R, T97A, A106V
VL: B1 VL with R18K, F30L, W99R
notes: mouse hybridoma mAb
B10: 260G9E8 (antibody, V domains shown)
VH: B1 VH with Y3D, T30A, N59K, K65T, S84T, T97A
VL: B1 VL with R18K, S22R, F30L, E87D, W99M, Y100F
notes: mouse hybridoma mAb
B11: 262H9H6 (antibody, V domains shown)
VH: B1 VH with Y52S, G57Y, K65R, A106T
VL: B1 VL with D76E, D97N, Y100F
notes: mouse hybridoma mAb
B12: 234E1F12 (antibody, V domains shown)
VH: B1 VH with G42R, G57D
VL: B1 VL with D97A
notes: mouse hybridoma mAb
B13: 242H12D6 (antibody, V domains shown)
VH: B1 VH with S84N
VL: B1 VL with W99R
notes: mouse hybridoma mAb
B14: 258D11C4 (antibody, V domains shown)
VH: B1 VH with T30S
VL: B1 VL with E61Q, Y100F
notes: mouse hybridoma mAb
B15: 259C6F7 (antibody, V domains shown)
VH: B1 VH with T30S, M34I, G57D, T97A, A106V
VL: B1 VL with T5I, R18K, F30L, D97A, W99R, Y100F
notes: mouse hybridoma mAb
B16: 257B1G9 (antibody, V domains shown)
VH: B1 VH
VL: B1 VL with K14R, W99R
notes: mouse hybridoma mAb
B17: 233D5E5 (antibody, V domains shown)
VH: B1 VH with G42R, G57D
VL: B1 VL with D97A
notes: mouse hybridoma mAb
B18: 234C9G5 (antibody, V domains shown)
VH: B1 VH with T28A, Y52S, G57Y, K65R, S84G
VL: B1 VL with D97N, Y100F
notes: mouse hybridoma mAb
B19: 243B4F2 (antibody, V domains shown)
VH: B1 VH with M34L, G57N
VL: B1 VL with D97N, Y100F
notes: mouse hybridoma mAb
B20: 267H5F12 (antibody, V domains shown)
VH: B1 VH with Y52S, G57Y, K65R, A106T
VL: B1 VL with D76E, D97N, Y100F
notes: mouse hybridoma mAb
B21: 257G7B9 (antibody, V domains shown)
VH: B1 VH with M34L, G57N
VL: B1 VL with D97N, Y100F
notes: mouse hybridoma mAb
B22: 250F4G4 (antibody, V domains shown)
VH: B1 VH with G57R
VL: B1 VL with A15V
notes: mouse hybridoma mAb
B23: 239H12G9 (antibody, V domains shown)
VH: B1 VH with M34I, G57A, T58P, K65R, T97A, A106V
VL: B1 VL with R18K, F30L, W99R
notes: mouse hybridoma mAb
B24: 257F1E11 (antibody, V domains shown)
VH: B1 VH with M34I, G42R
VL: B1 VL with V91I
notes: mouse hybridoma mAb
B25: 243B4F7 (antibody, V domains shown)
VH: B1 VH with M34L, G57N
VL: B1 VL with D97N, Y100F
notes: mouse hybridoma mAb
B26: 250F4G1 (antibody, V domains shown)
VH: B1 VH with G57R
VL: B1 VL with A15V
notes: mouse hybridoma mAb
B27: 259C6F4 (antibody, V domains shown)
VH: B1 VH with T30S, M34I, G57D, T97A, A106V
VL: B1 VL with T5I, R18K, F30L, D97A, W99R, Y100F
notes: mouse hybridoma mAb
B28: 231H4G11 (antibody, V domains shown)
VH: B1 VH with M34I, Y52S, G57Y, K65R
VL: B1 VL with N34S, T69S, D97N, Y100F
notes: mouse hybridoma mAb
B29: 257G7F7 (antibody, V domains shown)
VH: B1 VH with M34L, G57N
VL: B1 VL with D97N, Y100F
notes: mouse hybridoma mAb
B30: 256C3D3 (antibody, V domains shown)
VH: B1 VH with T28A, Y52S, G57Y, K65R, S84G
VL: B1 VL with D97N, Y100F
notes: mouse hybridoma mAb
B31: 252F1B10 (antibody, V domains shown)
VH: B1 VH with S84N
VL: B1 VL with W99R
notes: mouse hybridoma mAb

This experiment concerns the target T1, human Claudin18.2 (human).
T1 construct: also called CLDN18.2
The experiment can be described thus: cell ELISA, Claudin18.2-expressing HEK293T cells. How it is done: To determine protein binding EC₅₀ by Cell ELISA, 96-well U-bottom microplates were pre-blocked with blocking buffer (5% MPBS, 1×PBS with 5% skim milk) overnight at 4° C. On the next day, the Claudin18.2-expressing HEK293T stable cell line was suspended at 1.5×10⁶ cells/ml in blocking buffer, added to the plate in 100 μl/well and incubated at room temperature for 1 hour.
Raw data were plotted with GraphPad Prism v6.02 software with four parameters, best-fit value program to analyze the EC₅₀.
A general note: An ELISA detects its analyte on a solid surface through an enzyme-linked reagent.
Broadly, the EC50 is the midpoint of the concentration-response curve. Low readings indicate a more potent agent, high ones a less potent agent. In turn, B1 came in with an EC50 of 0.582 nM.

For the molecule B2, it took 1.16 nM to reach a half-maximal effect (EC50).

As to B3, the EC50 came out at 1.09 nM. This EC50 and that of the molecule before are within 1.5-fold of each other.

B4 returned an EC50 of approximately 4410 nM.

B5 displayed an EC50 of 0.738 nM.

Molecule B6 returned an EC50 of 1.77 nM. This EC50 lies about 2.4-fold higher than the previous one.

In turn, B7 showed an EC50 of 0.63 nM. This EC50 is about 2.8-fold lower than that of the molecule before.

Molecule B8 registered an EC50 of 0.96 nM.

With B9, the EC50 is approximately 0.439 nM.

On to B10, for which the EC50 is 0.821 nM.

In the case of B11, it took 0.879 nM to reach a half-maximal effect (EC50).

As to B12, a half-maximal effect (EC50) was put at 0.57 nM.

The molecule B13 showed an EC50 of 0.744 nM.

As for B14, the EC50 was approximately 0.406 nM.

On to B15, for which the EC50 was approximately 0.443 nM.

The molecule B16 yielded an EC50 of 0.948 nM.

Turning to B17, a half-maximal response (EC50) required 0.803 nM.

Molecule B18 returned an EC50 of 0.562 nM.

As for B19, the response was half-maximal at 0.684 nM (EC50).

B20 showed an EC50 of approximately 0.513 nM.

As to B21, the EC50 turned out to be 1.02 nM. In other words, the single-digit nanomolar range.

Take B22: the EC50 is 0.199 nM.

As for B23, the EC50 stood at 0.732 nM. This EC50 lies about 3.7-fold higher than the previous one.

The molecule B24 showed an EC50 of 57.8 nM. This EC50 is about 79-fold higher than that of the molecule before.

With B25, the EC50 is approximately 0.411 nM.

B26 had an EC50 of 0.415 nM.

B27: the EC50 was 2.32 nM.

Regarding B28, a half-maximal response (EC50) required 1.01 nM.

In turn, B29 returned a concentration for a half-maximal effect (EC50) of approximately 0.413 nM.

In the case of B30, the EC50 came out at 0.729 nM.

As for B31, it took 0.53 nM to reach a half-maximal effect (EC50).
